PMC9845754

Target: taxol-stabilized microtubules polymerized from porcine brain tubulin (porcine) (UniProt P02550)
Experiment: co-sedimentation; 0, 1, 2, 4, 6, 8 or 10 µM ICR2-His6 added to taxol-stabilized microtubules (5 µM tubulin) in PEMT (100 mM PIPES, 1 mM EGTA, 1 mM MgCl2, 1 mM GTP, 20 µM taxol, pH 6.9); 100,000 g, 25°C, 15 min; SDS-PAGE, Coomassie, densitometry

## ICR2-His6 (from UniProt Q9ZQC5 56-583) (natural protein)
  stoichiometry N (mol ICR2-His6 per mole of tubulin): 0.85
